Source: patent US8936785 (ESBATECH AN ALCON BIOMEDICAL RESEARCH UNIT, dated 2015)

Molecular target: TNFα (tumour necrosis factor alpha) (UniProt P01375 77-233, limits assumed)
Assay: cell-based or functional assay

Sequence of TNFα (tumour necrosis factor alpha) (P01375 77-233 limits assumed): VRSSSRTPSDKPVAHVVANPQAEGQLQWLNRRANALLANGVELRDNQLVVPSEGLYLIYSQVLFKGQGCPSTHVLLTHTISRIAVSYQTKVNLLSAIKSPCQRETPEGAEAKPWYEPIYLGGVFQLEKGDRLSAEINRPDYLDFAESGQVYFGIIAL

Binder	Relative potency: EC50X/EC50ESBA105, L929 cells [ratio EC50X/EC50ESBA105]
TB-H_F68V_F70L (scFv) scFv: DIVMTQSPSSLSASVGDRVTLTCTASQSVSNDVVWYQQRPGKAPKLLIYSAFNRYTGVPSRFSGRGYGTDFTLTISSLQPEDVAVYYCQQDYNSPRTFGQGTKLEVKRGGGGSGGGGSGGGGSSGGGSQVQLVQSGAEVKKPGASVKVSCTASGYTFTHYGMNWVRQAPGKGLEWMGWINTYTGEPTYADKFKDRVTLSLETSASTVYMELTSLTSDDTAVYYCARERGDAMDYWGQGTLVTVSS	1.28
TB-H_F70L (scFv) scFv: DIVMTQSPSSLSASVGDRVTLTCTASQSVSNDVVWYQQRPGKAPKLLIYSAFNRYTGVPSRFSGRGYGTDFTLTISSLQPEDVAVYYCQQDYNSPRTFGQGTKLEVKRGGGGSGGGGSGGGGSSGGGSQVQLVQSGAEVKKPGASVKVSCTASGYTFTHYGMNWVRQAPGKGLEWMGWINTYTGEPTYADKFKDRFTLSLETSASTVYMELTSLTSDDTAVYYCARERGDAMDYWGQGTLVTVSS	2.7
